Laboratory results reported in patent US20190025332A1 (Novo Nordisk, published 2019).

T1: wild type human MIC-1 (human, UniProt Q99988 197-308)
T1 construct: also called wtMIC-1; hMIC-1
T1 sequence: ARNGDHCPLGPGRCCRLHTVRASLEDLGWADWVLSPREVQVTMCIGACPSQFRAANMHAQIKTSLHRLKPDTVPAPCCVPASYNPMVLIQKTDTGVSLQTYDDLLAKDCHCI


How the values were obtained:
wild type human MIC-1 = target: T1, wild type human MIC-1; assay: SPR; GFRAL fragment as analyte over immobilised wtMIC-1; relative to hGFRAL(ECR) set as 100%
Procedure: MIC-1 interactions with soluble GFRAL fragments were assessed by SPR-based binding assay. A Biacore® 4000 (GE Healthcare, Piscataway, N.J., USA) instrument was used for SPR-based binding assay. The assays were performed at 25° C. at flow rates of 30 μL/minute in 1× HBS-P running buffer (BR-1006-71, GE Healthcare, Piscataway, N.J., USA). Purified GFRAL fragments at various concentrations were run as flow-through analyte and wtMIC-1 was immobilized as ligand. Please see FIG. 6 and Table 5.

hRET(ECR)-hIgG1.1_Fc [1] = target: T2, hRET(ECR)-hIgG1.1_Fc (human); assay: SPR; analyte 0 nM over immobilised hRet(ECR)-Fc
T2 construct: also called hRET(ECR)-Fc; hRet(ECR)-Fc
Procedure: (§1) hRet and complex of hGFRAL and MIC-1 interactions were assessed by SPR-based binding assay. A Biacore® 4000 (GE Healthcare, Piscataway, N.J., USA) instrument was used. The assays were performed at 25° C. at flow rates of 30 μL/minute in 1× HBS-P running buffer (BR-1006-71, GE Healthcare, Piscataway, N.J., USA). hRet(ECR)-Fc was immobilized through Fc as ligand on the chip. VISTA-Fc was immobilized as negative control ligand. The complex of MIC-1 and hGFRAL was prepared by pre-incubating wtMIC-1 with hGFRAL(ECR)-His. wtMIC-1, hGFRAL(ECR)-His, complex of wtMIC-1 and Ctrl-His, and complex of wtMIC-1 and hGFRAL(ECR)-His at various concentration were run as flow-through analyte.
(§2) Thus, it can be concluded that that hRet binds to hGFRAL in the presence of MIC-1; and Ret, MIC-1 and GFRAL forms a ternary complex.

hRET(ECR)-hIgG1.1_Fc [2] = target: T2, hRET(ECR)-hIgG1.1_Fc; assay: SPR; analyte 12 nM over immobilised hRet(ECR)-Fc
Procedure: as §1, §2

hRET(ECR)-hIgG1.1_Fc [3] = target: T2, hRET(ECR)-hIgG1.1_Fc; assay: SPR; analyte 37 nM over immobilised hRet(ECR)-Fc
Procedure: as §1, §2

hRET(ECR)-hIgG1.1_Fc [4] = target: T2, hRET(ECR)-hIgG1.1_Fc; assay: SPR; analyte 111 nM over immobilised hRet(ECR)-Fc
Procedure: as §1, §2

hRET(ECR)-hIgG1.1_Fc [5] = target: T2, hRET(ECR)-hIgG1.1_Fc; assay: SPR; analyte 333 nM over immobilised hRet(ECR)-Fc
Procedure: as §1, §2

hRET(ECR)-hIgG1.1_Fc [6] = target: T2, hRET(ECR)-hIgG1.1_Fc; assay: SPR; analyte 1000 nM over immobilised hRet(ECR)-Fc
Procedure: as §1, §2

VISTA-Fc [7] = target: T3, VISTA-Fc; assay: SPR; analyte 0 nM over immobilised VISTA-Fc (Ctrl-Fc)
T3 construct: Negative control ligand immobilised on the chip; also called Ctrl-Fc
Procedure: as §1, §2

VISTA-Fc [8] = target: T3, VISTA-Fc; assay: SPR; analyte 12 nM over immobilised VISTA-Fc (Ctrl-Fc)
Procedure: as §1

VISTA-Fc [9] = target: T3, VISTA-Fc; assay: SPR; analyte 37 nM over immobilised VISTA-Fc (Ctrl-Fc)
Procedure: as §1, §2

VISTA-Fc [10] = target: T3, VISTA-Fc; assay: SPR; analyte 111 nM over immobilised VISTA-Fc (Ctrl-Fc)
Procedure: as §1, §2

VISTA-Fc [11] = target: T3, VISTA-Fc; assay: SPR; analyte 333 nM over immobilised VISTA-Fc (Ctrl-Fc)
Procedure: as §1, §2

VISTA-Fc [12] = target: T3, VISTA-Fc; assay: SPR; analyte 1000 nM over immobilised VISTA-Fc (Ctrl-Fc)
Procedure: as §1, §2

T2 sequence (chain, as listed by the source limits assumed): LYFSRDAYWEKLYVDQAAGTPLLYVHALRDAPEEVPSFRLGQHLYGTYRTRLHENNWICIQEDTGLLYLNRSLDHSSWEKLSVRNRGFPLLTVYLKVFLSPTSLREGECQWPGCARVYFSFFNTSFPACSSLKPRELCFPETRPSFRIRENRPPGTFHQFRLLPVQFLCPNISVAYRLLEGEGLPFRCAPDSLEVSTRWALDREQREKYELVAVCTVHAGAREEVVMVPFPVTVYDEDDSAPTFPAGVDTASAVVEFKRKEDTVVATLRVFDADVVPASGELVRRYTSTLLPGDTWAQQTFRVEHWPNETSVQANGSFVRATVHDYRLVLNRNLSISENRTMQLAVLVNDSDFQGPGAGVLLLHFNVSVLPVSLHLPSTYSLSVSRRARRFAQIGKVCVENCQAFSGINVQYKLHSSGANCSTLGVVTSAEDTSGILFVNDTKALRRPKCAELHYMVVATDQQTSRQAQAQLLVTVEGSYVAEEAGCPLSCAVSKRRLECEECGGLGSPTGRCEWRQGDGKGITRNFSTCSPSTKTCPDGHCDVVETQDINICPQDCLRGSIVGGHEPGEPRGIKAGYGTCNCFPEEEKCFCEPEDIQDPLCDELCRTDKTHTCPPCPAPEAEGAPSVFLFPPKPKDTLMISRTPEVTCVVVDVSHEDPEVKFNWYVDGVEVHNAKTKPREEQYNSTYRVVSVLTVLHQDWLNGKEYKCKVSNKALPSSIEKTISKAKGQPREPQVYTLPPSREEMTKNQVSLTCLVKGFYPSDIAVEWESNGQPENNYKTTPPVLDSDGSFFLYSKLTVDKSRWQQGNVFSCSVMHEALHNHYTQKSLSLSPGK

% of Binding (wild type human MIC-1) | Response (RU) (hRET(ECR)-hIgG1.1_Fc [1]) | Response (RU) (hRET(ECR)-hIgG1.1_Fc [2]) | Response (RU) (hRET(ECR)-hIgG1.1_Fc [3]) | Response (RU) (hRET(ECR)-hIgG1.1_Fc [4]) | Response (RU) (hRET(ECR)-hIgG1.1_Fc [5]) | Response (RU) (hRET(ECR)-hIgG1.1_Fc [6]) | Response (RU) (VISTA-Fc [7]) | Response (RU) (VISTA-Fc [8]) | Response (RU) (VISTA-Fc [9]) | Response (RU) (VISTA-Fc [10]) | Response (RU) (VISTA-Fc [11]) | Response (RU) (VISTA-Fc [12]) | Binder
21% | – | – | – | – | – | – | – | – | – | – | – | – | hGFRAL_C2_Fab_HPC4 (receptor, C2 = amino acid 131-219 of UniProt Q6UXV0) CLEVAEACVGDVVCNAQLASYLKACSANGNPCDLKQCQAAIRFFYQNIPFNIAQMLAFCDCAQSDIPCQQSKEALHSKTCAVNMVPPPTGGGGSGGGGSDVVMTQTPLSLPVSLGDQASISCRSSQSLLHSNGNTYLHWYLQKPGQSPKLLIYKVSNRFSGVPDRFSGSGSGTDFTLKISRVEAEDLGVYFCSQSTHVPWTFGGGTKLEIKRADAAPTVSIFPPSSEQLTSGGASVVCFLNNFYPKDINVKWKIDGSERQNGVLNSWTDQDSKDSTYSMSSTLTLTKDEYERHNSYTCEATHKTSTSPIVKSFNRNEC heavy: EVQIQESGPSLVKPSQTLSLTCSVSGDSITSGYWNWIRKFPGHKIEYMGTISYSGDTYYNPSLKSRISITRDTSKNQYYLHLNSVTTEDTATYYCARYGSYVFDYWGQGTTLTVSSAKTTPPSVYPLAPGSAAQTNSMVTLGCLVKGYFPEPVTVTWNSGSLSSGVHTFPAVLQSDLYTLSSSVTVPSSTWPSETVTCNVAHPASSTKVDKKIVPRDCGGGGSEDQVDPRLIDGK
87% | – | – | – | – | – | – | – | – | – | – | – | – | hGFRAL_C1C2_Fab_HPC4 (receptor) QTNNCTYLREQCLRDANGCKHAWRVMEDACNDSDPGDPCKMRNSSYCNLSIQYLVESNFQFKECLCTDDFYCTVNKLLGKKCINKSDNVKEDKFKWNLTTRSHHGFKGMWSCLEVAEACVGDVVCNAQLASYLKACSANGNPCDLKQCQAAIRFFYQNIPFNIAQMLAFCDCAQSDIPCQQSKEALHSKTCAVNMVPPPTGGGGSGGGGSDVVMTQTPLSLPVSLGDQASISCRSSQSLLHSNGNTYLHWYLQKPGQSPKLLIYKVSNRFSGVPDRFSGSGSGTDFTLKISRVEAEDLGVYFCSQSTHVPWTFGGGTKLEIKRADAAPTVSIFPPSSEQLTSGGASVVCFLNNFYPKDINVKWKIDGSERQNGVLNSWTDQDSKDSTYSMSSTLTLTKDEYERHNSYTCEATHKTSTSPIVKSFNRNEC heavy: EVQIQESGPSLVKPSQTLSLTCSVSGDSITSGYWNWIRKFPGHKIEYMGTISYSGDTYYNPSLKSRISITRDTSKNQYYLHLNSVTTEDTATYYCARYGSYVFDYWGQGTTLTVSSAKTTPPSVYPLAPGSAAQTNSMVTLGCLVKGYFPEPVTVTWNSGSLSSGVHTFPAVLQSDLYTLSSSVTVPSSTWPSETVTCNVAHPASSTKVDKKIVPRDCGGGGSEDQVDPRLIDGK
8% | – | – | – | – | – | – | – | – | – | – | – | – | hGFRAL_C2C3_Fab_HPC4 (receptor) CLEVAEACVGDVVCNAQLASYLKACSANGNPCDLKQCQAAIRFFYQNIPFNIAQMLAFCDCAQSDIPCQQSKEALHSKTCAVNMVPPPTCLSVIRSCQNDELCRRHYRTFQSKCWQRVTRKCHEDENCISTLSKQDLTCSGSDDCKAAYIDILGTVLQVQCTCRTITQSEESLCKIFQHMLHRKSCFNYPTLSNVKGMALYTRKHANKITLTGFHSPFNGEGGGGSGGGGSDVVMTQTPLSLPVSLGDQASISCRSSQSLLHSNGNTYLHWYLQKPGQSPKLLIYKVSNRFSGVPDRFSGSGSGTDFTLKISRVEAEDLGVYFCSQSTHVPWTFGGGTKLEIKRADAAPTVSIFPPSSEQLTSGGASVVCFLNNFYPKDINVKWKIDGSERQNGVLNSWTDQDSKDSTYSMSSTLTLTKDEYERHNSYTCEATHKTSTSPIVKSFNRNEC heavy: EVQIQESGPSLVKPSQTLSLTCSVSGDSITSGYWNWIRKFPGHKIEYMGTISYSGDTYYNPSLKSRISITRDTSKNQYYLHLNSVTTEDTATYYCARYGSYVFDYWGQGTTLTVSSAKTTPPSVYPLAPGSAAQTNSMVTLGCLVKGYFPEPVTVTWNSGSLSSGVHTFPAVLQSDLYTLSSSVTVPSSTWPSETVTCNVAHPASSTKVDKKIVPRDCGGGGSEDQVDPRLIDGK
– | 0 RU | -0.0397 RU | -0.105 RU | 0.208 RU | -0.497 RU | -1.11 RU | 0 RU | -2.34 RU | -2.04 RU | -2.94 RU | -3.48 RU | -3.85 RU | hGFRAL(ECR)-His (receptor, not shown: small tags and cut ends) SQTNNCTYLREQCLRDANGCKHAWRVMEDACNDSDPGDPCKMRNSSYCNLSIQYLVESNFQFKECLCTDDFYCTVNKLLGKKCINKSDNVKEDKFKWNLTTRSHHGFKGMWSCLEVAEACVGDVVCNAQLASYLKACSANGNPCDLKQCQAAIRFFYQNIPFNIAQMLAFCDCAQSDIPCQQSKEALHSKTCAVNMVPPPTCLSVIRSCQNDELCRRHYRTFQSKCWQRVTRKCHEDENCISTLSKQDLTCSGSDDCKAAYIDILGTVLQVQCTCRTITQSEESLCKIFQHMLHRKSCFNYPTLSNVKGMALYTRKHANKITLTGFHSPFNGE
– | 0 RU | 0.226 RU | 1.97 RU | 5.48 RU | 8.32 RU | 10.7 RU | 0 RU | -1.39 RU | -1.48 RU | -1.02 RU | -1.43 RU | -1.4 RU | complex of wtMIC-1 and hGFRAL(ECR)-His (other, Prepared by pre-incubating wtMIC-1 with hGFRAL(ECR)-His; also called wtMIC-1 + hGFRAL(ECR)-His; complex of MIC-1 and hGFRAL; not shown: His tag, not described) chain 1: ARNGDHCPLGPGRCCRLHTVRASLEDLGWADWVLSPREVQVTMCIGACPSQFRAANMHAQIKTSLHRLKPDTVPAPCCVPASYNPMVLIQKTDTGVSLQTYDDLLAKDCHCI chain 2: SQTNNCTYLREQCLRDANGCKHAWRVMEDACNDSDPGDPCKMRNSSYCNLSIQYLVESNFQFKECLCTDDFYCTVNKLLGKKCINKSDNVKEDKFKWNLTTRSHHGFKGMWSCLEVAEACVGDVVCNAQLASYLKACSANGNPCDLKQCQAAIRFFYQNIPFNIAQMLAFCDCAQSDIPCQQSKEALHSKTCAVNMVPPPTCLSVIRSCQNDELCRRHYRTFQSKCWQRVTRKCHEDENCISTLSKQDLTCSGSDDCKAAYIDILGTVLQVQCTCRTITQSEESLCKIFQHMLHRKSCFNYPTLSNVKGMALYTRKHANKITLTGFHSPFNGE
